Assay results as given in patent publication US20250122482A1.

Molecular target: mouse-TfR Fab (8D3) fused to SpyCatcher
Test: cell-based or functional assay

“soluble SpyTag peptide (peptide; modification not given; by the resolver: SpyCatcher is fused to one Fab chain and forms an isopeptide bond with SpyTag, whether soluble or on the capsid)” gave a cross conjugation signal (luciferase, transduction assay on mTfR+HEK293) (log reduction) of 2.
